Target: recombinant His-MYC-bHLH-LZ protein
Test: BLI

Kd: 225 nM
B1: recombinant GST-MKK3 protein (enzyme)
chain: MESPASSQPASMPQSKGKSKRKKDLRISCMSKPPAPNPTPPRNLDSRTFITIGDRNFEVEADDLVTISELGRGAYGVVEKVRHAQSGTIMAVKRIRATVNSQEQKRLLMDLDINMRTVDCFYTVTFYGALFREGDVWICMELMDTSLDKFYRKVLDKNMTIPEDILGEIAVSIVRALEHLHSKLSVIHRDVKPSNVLINKEGHVKMCDFGISGYLVDSVAKTMDAGCKPYMAPERINPELNQKGYNVKSDVWSLGITMIEMAILRFPYESWGTPFQQLKQVVEEPSPQLPADRFSPEFVDFTAQCLRKNPAERMSYLELMEHPFFTLHKTKKTDIAAFVKEILGEDS

Reference: article PMC5648601
